Experimental data as given in IntAct's records for PubMed 17595294.

B1: Glycine--tRNA ligase (Homo sapiens), P41250 (parent)
chain: MPSPRPVLLRGARAALLLLLPPRLLARPSLLLRRSLSAASCPPISLPAAASRSSMDGAGAEEVLAPLRLAVRQQGDLVRKLKEDKAPQVDVDKAVAELKARKRVLEAKELALQPKDDIVDRAKMEDTLKRRFFYDQAFAIYGGVSGLYDFGPVGCALKNNIIQTWRQHFIQEEQILEIDCTMLTPEPVLKTSGHVDKFADFMVKDVKNGECFRADHLLKAHLQKLMSDKKCSVEKKSEMESVLAQLDNYGQQELADLFVNYNVKSPITGNDLSPPVSFNLMFKTFIGPGGNMPGYLRPETAQGIFLNFKRLLEFNQGKLPFAAAQIGNSFRNEISPRSGLIRVREFTMAEIEHFVDPSEKDHPKFQNVADLHLYLYSAKAQVSGQSARKMRLGDAVEQGVINNTVLGYFIGRIYLYLTKVGISPDKLRFRQHMENEMAHYACDCWDAESKTSYGWIEIVGCADRSCYDLSCHARATKVPLVAEKPLKEPKTVNVVQFEPSKGAIGKAYKKDAKLVMEYLAICDECYITEMEMLLNEKGEFTIETEGKTFQLTKDMINVKRFQKTLYVEEVVPNVIEPSFGLGRIMYTVFEHTFHVREGDEQRTFFSFPAVVAPFKCSVLPLSQNQEFMPFVKELSEALTRHGVSHKVDDSSGSIGRRYARTDEIGVAFGVTIDFDTVNKTPHTATLRDRDSMRQIRAEISELPSIVQDLANGNITWADVEARYPLFEGQETGKKETIEE
partner: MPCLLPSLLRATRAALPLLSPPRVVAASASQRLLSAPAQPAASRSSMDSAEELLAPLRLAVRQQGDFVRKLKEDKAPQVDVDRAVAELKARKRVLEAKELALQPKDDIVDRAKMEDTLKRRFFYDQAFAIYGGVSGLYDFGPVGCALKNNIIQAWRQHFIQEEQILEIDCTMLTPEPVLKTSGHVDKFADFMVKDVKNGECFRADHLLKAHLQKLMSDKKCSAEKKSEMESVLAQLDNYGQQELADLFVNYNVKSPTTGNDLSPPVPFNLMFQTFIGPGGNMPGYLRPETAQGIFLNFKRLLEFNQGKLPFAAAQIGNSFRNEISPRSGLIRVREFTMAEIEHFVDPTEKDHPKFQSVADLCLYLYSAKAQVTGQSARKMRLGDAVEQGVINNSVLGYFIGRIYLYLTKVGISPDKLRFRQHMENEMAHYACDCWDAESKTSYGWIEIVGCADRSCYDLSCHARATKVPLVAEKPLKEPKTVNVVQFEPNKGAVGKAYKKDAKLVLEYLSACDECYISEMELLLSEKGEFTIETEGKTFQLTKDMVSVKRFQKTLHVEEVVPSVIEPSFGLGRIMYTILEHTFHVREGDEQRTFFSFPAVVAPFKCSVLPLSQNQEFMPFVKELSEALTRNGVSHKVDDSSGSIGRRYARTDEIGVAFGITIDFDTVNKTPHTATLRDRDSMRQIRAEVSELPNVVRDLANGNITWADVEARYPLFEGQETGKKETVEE

Variants of: B1
Conditions: with gars_mouse Gars1, Q9CZD3

Row | effect of a mutation on the interaction | Variant
1 | increasing interaction strength | S644L
2 | increasing interaction strength | D554N
3 | increasing interaction strength | G580R
4 | disrupting interaction strength | G294R
5 | disrupting interaction strength | L183P
